Experimental data: patent publication US20220251217A1 (University of California, published 2022)
Blank lines part the entries; values can stand above or below the binder they belong to.

Assays:
[1] = target: T1, CD72-Fc (CD72 extracellular domain, aa 117-359, fused to a biotinylated human Fc domain) (human, UniProt P21854 117-359, biotinylated (on the Fc domain; site not stated)); experiment: on-yeast affinity measurement, flow cytometry, titration of CD72-Fc
T1 construct: range 117-359; Expressed in mammalian cells; also called CD72-ECD-Fc protein; recombinant CD72-Fc fusion protein; not shown: human Fc domain
T1 sequence (looked up): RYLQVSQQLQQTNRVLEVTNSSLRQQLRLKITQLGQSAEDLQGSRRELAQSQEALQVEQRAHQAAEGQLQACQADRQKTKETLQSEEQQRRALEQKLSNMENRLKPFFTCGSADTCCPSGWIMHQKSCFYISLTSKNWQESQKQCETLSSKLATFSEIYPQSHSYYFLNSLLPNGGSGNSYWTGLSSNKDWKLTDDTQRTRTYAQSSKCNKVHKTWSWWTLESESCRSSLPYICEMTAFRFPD
Description: FIG. 4a-e: Isolation of high-affinity CD72 nanobodies with yeast display (a) Schematic of workflow for in vitro anti-CD72 nanobody selection using yeast display. (b) Structure models of the recombinant Fc-fusion proteins used to perform yeast display selections. The Fc protein on the left was used to negatively select potential off-target nanobodies while the CD72-Fc protein (CD72 extracellular domain fused to a human Fc domain) was used to perform positive selection steps to isolate CD72-specific nanobodies (c) Schematic displaying the nanobody yeast display selection strategy for each MACS and FACS selection round to enrich for CD72-specific nanobody binders. Two rounds of MACS followed by four rounds of FACS with decreasing concentration of CD72 antigen produced high affinity anti-CD72 nanobodies. (d) On-yeast binding of recombinant CD72-Fc fusion protein for CD72-selected nanobodies Nb.B5 (nanobody sequence SEQ ID NO:2) and Nb.C2 (nanobody sequence SEQ ID NO:1) expressed on yeast to determine estimated binding affinities. Kd determined by curve fitting using non-linear least squares regression. (e) Flow cytometry plots of yeast clone Nb.C2 binding to 10 nM CD72-ECD-Fc protein (left) or 10 nM Fc protein (right). […]

[2] = target: T2, CD72-Fc (CD72 extracellular domain, aa 117-359, fused to a biotinylated human Fc domain) (human, UniProt P21854 117-359, biotinylated (on the Fc domain; site not stated)); experiment: on-yeast binding (yeast display flow cytometry)
T2 chain: T1 sequence (looked up)

binding result [1]: binds
Kd [2]: 1.5 nM
B1: Nb.C2 (VHH)
VHH: QVQLQESGGGLVQAGGSLRLSCAASGTIFDWYSMGWYRQAPGKERELVAGIDTGANTYYADSVKGRFTISRDNAKNTVYLQMNSLKPEDTAVYYCAAHDDGDPWHVYWGQGTQVTVSS
notes: also called yeast clone Nb.C2

binding result [1]: binds
Kd [2]: 1 nM
B2: Nb.B5 (VHH)
VHH: QVQLQESGGGLVQAGGSLRLSCAASGTIFPVDYMGWYRQAPGKERELVAGINYGSNTYYADSVKGRFTISRDNAKNTVYLQMNSLKPEDTAVYYCAAWQPEGYAVDFYHPYWGQGTQVTVSS
